Test results from patent publication US10941182 (Amgen, dated 2021).
Starred links: 1 amine or outer side, 2 acyl side, 3 side chain; linkers in the order of their positions; H or OH if unused. Non-standard residues stand in square brackets, D forms with d. *: point of attachment. dBip = N[C@H](Cc1ccc(-c2ccccc2)cc1)C(=O)O; Oic = O=C(O)[C@@H]1C[C@@H]2CCCC[C@@H]2N1; Phe(4-Cl) = N[C@@H](Cc1ccc(Cl)cc1)C(=O)O; dPhe(4-Cl) = N[C@H](Cc1ccc(Cl)cc1)C(=O)O; Phe(4-I) = N[C@@H](Cc1ccc(I)cc1)C(=O)O; γGlu = O=C(O)[C@H](CCC(=O)[*:2])N[*:1]; NMeR = CN[C@@H](CCCNC(=N)N)C(=O)O; Tridecanoyl = CCCCCCCCCCCCC(=O)*; hArg = N=C(N)NCCCC[C@H](N)C(=O)O; Cha = N[C@@H](CC1CCCCC1)C(=O)O; NMeL = CN[C@@H](CC(C)C)C(=O)O; Tle = CC(C)(C)[C@H](N)C(=O)O; β3hP = O=C(O)C[C@@H]1CCCN1; Nle = CCCC[C@H](N)C(=O)O; Orn = NCCC[C@H](N)C(=O)O; Deg = CCC(N)(CC)C(=O)O; AEEA = NCCOCCOCC(=O)O; Aib = CC(C)(N)C(=O)O; BLeu = β-leucine

How the values were obtained:
human APJ receptor = target: T1, human APJ receptor (human, UniProt P35414 1-380); experiment: cell-based or functional assay
T1 sequence (looked up): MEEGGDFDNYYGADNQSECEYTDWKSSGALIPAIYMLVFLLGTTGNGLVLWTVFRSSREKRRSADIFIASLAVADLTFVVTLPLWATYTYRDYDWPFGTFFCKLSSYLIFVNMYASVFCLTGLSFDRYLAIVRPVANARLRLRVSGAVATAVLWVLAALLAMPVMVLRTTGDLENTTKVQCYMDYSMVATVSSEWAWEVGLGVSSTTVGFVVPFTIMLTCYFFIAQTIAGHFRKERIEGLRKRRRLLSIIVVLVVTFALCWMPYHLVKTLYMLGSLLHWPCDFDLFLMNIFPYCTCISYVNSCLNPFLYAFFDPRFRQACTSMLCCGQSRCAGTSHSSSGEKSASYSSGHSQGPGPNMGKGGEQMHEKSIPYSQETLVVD

rat APJ receptor = target: T2, rat APJ receptor (rat, UniProt Q9JHG3 1-377); experiment: cell-based or functional assay
T2 sequence (looked up): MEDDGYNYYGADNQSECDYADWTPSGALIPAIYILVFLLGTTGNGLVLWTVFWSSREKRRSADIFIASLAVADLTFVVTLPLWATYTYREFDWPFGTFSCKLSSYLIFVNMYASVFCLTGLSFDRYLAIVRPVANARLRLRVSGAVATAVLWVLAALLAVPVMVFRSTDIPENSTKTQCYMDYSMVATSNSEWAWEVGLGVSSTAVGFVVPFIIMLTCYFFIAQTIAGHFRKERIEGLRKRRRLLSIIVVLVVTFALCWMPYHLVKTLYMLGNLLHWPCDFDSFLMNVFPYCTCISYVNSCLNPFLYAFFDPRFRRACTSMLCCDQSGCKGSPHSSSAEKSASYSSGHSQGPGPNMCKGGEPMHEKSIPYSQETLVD

B1: Apelin polypeptide SEQ ID NO: 488 (peptide)
peptide: Tridecanoyl-[γGlu][AEEA][AEEA][dQ][hArg]P[hArg][Cha]SHKG[Oic][Nle]P[Phe(4-Cl)]-OH
SMILES: CCCCCCCCCCCCC(=O)N[C@@H](CCC(=O)NCCOCCOCC(=O)NCCOCCOCC(=O)N[C@H](CCC(N)=O)C(=O)N[C@@H](CCCCNC(=N)N)C(=O)N1CCC[C@H]1C(=O)N[C@@H](CCCCNC(=N)N)C(=O)N[C@@H](CC1CCCCC1)C(=O)N[C@@H](CO)C(=O)N[C@@H](Cc1c[nH]cn1)C(=O)N[C@@H](CCCCN)C(=O)NCC(=O)N1[C@H](C(=O)N[C@@H](CCCC)C(=O)N2CCC[C@H]2C(=O)N[C@@H](Cc2ccc(Cl)cc2)C(=O)O)C[C@@H]2CCCC[C@@H]21)C(=O)O
- EC50 Human APJ Receptor (GTPγS assay) (human APJ receptor): 0.198 nM
- EC50 Rat APJ Receptor (GTPγS assay) (rat APJ receptor): 1.72 nM

B2: Apelin polypeptide SEQ ID NO: 486 (peptide)
peptide: Tridecanoyl-[γGlu][AEEA][AEEA][dQ][hArg][Oic][dR][Cha]SHKG[Oic][Nle]P[Phe(4-Cl)]-OH
SMILES: CCCCCCCCCCCCC(=O)N[C@@H](CCC(=O)NCCOCCOCC(=O)NCCOCCOCC(=O)N[C@H](CCC(N)=O)C(=O)N[C@@H](CCCCNC(=N)N)C(=O)N1[C@H](C(=O)N[C@H](CCCNC(=N)N)C(=O)N[C@@H](CC2CCCCC2)C(=O)N[C@@H](CO)C(=O)N[C@@H](Cc2c[nH]cn2)C(=O)N[C@@H](CCCCN)C(=O)NCC(=O)N2[C@H](C(=O)N[C@@H](CCCC)C(=O)N3CCC[C@H]3C(=O)N[C@@H](Cc3ccc(Cl)cc3)C(=O)O)C[C@@H]3CCCC[C@@H]32)C[C@@H]2CCCC[C@@H]21)C(=O)O
- EC50 Human APJ Receptor (GTPγS assay) (human APJ receptor): 1.79 nM
- EC50 Rat APJ Receptor (GTPγS assay) (rat APJ receptor): 4.04 nM

B3: Apelin polypeptide SEQ ID NO: 442 (peptide)
peptide: Tridecanoyl-[γGlu][AEEA][AEEA][Tle]RP[NMeR][Cha]SHKG[Oic][Nle]P[Phe(4-Cl)]-OH
SMILES: CCCCCCCCCCCCC(=O)N[C@@H](CCC(=O)NCCOCCOCC(=O)NCCOCCOCC(=O)N[C@H](C(=O)N[C@@H](CCCNC(=N)N)C(=O)N1CCC[C@H]1C(=O)N(C)[C@@H](CCCNC(=N)N)C(=O)N[C@@H](CC1CCCCC1)C(=O)N[C@@H](CO)C(=O)N[C@@H](Cc1c[nH]cn1)C(=O)N[C@@H](CCCCN)C(=O)NCC(=O)N1[C@H](C(=O)N[C@@H](CCCC)C(=O)N2CCC[C@H]2C(=O)N[C@@H](Cc2ccc(Cl)cc2)C(=O)O)C[C@@H]2CCCC[C@@H]21)C(C)(C)C)C(=O)O
- EC50 Human APJ Receptor (GTPγS assay) (human APJ receptor): 2 nM
- EC50 Rat APJ Receptor (GTPγS assay) (rat APJ receptor): 2.16 nM

B4: Apelin polypeptide SEQ ID NO: 455 (peptide)
peptide: Tridecanoyl-[γGlu][AEEA][AEEA][dQ][hArg][Deg][dR][Cha]SHKG[Oic][Nle]P[Phe(4-Cl)]-OH
SMILES: CCCCCCCCCCCCC(=O)N[C@@H](CCC(=O)NCCOCCOCC(=O)NCCOCCOCC(=O)N[C@H](CCC(N)=O)C(=O)N[C@@H](CCCCNC(=N)N)C(=O)NC(CC)(CC)C(=O)N[C@H](CCCNC(=N)N)C(=O)N[C@@H](CC1CCCCC1)C(=O)N[C@@H](CO)C(=O)N[C@@H](Cc1c[nH]cn1)C(=O)N[C@@H](CCCCN)C(=O)NCC(=O)N1[C@H](C(=O)N[C@@H](CCCC)C(=O)N2CCC[C@H]2C(=O)N[C@@H](Cc2ccc(Cl)cc2)C(=O)O)C[C@@H]2CCCC[C@@H]21)C(=O)O
- EC50 Human APJ Receptor (GTPγS assay) (human APJ receptor): 2.48 nM
- EC50 Rat APJ Receptor (GTPγS assay) (rat APJ receptor): 10.3 nM

B5: Apelin polypeptide SEQ ID NO: 292 (peptide)
peptide: Tridecanoyl-[γGlu][AEEA][AEEA][dL][hArg]P[NMeR][Cha]SHKG[Oic][Nle]P[dPhe(4-Cl)]-OH
SMILES: CCCCCCCCCCCCC(=O)N[C@@H](CCC(=O)NCCOCCOCC(=O)NCCOCCOCC(=O)N[C@H](CC(C)C)C(=O)N[C@@H](CCCCNC(=N)N)C(=O)N1CCC[C@H]1C(=O)N(C)[C@@H](CCCNC(=N)N)C(=O)N[C@@H](CC1CCCCC1)C(=O)N[C@@H](CO)C(=O)N[C@@H](Cc1c[nH]cn1)C(=O)N[C@@H](CCCCN)C(=O)NCC(=O)N1[C@H](C(=O)N[C@@H](CCCC)C(=O)N2CCC[C@H]2C(=O)N[C@H](Cc2ccc(Cl)cc2)C(=O)O)C[C@@H]2CCCC[C@@H]21)C(=O)O
- EC50 Human APJ Receptor (GTPγS assay) (human APJ receptor): 5.78 nM
- EC50 Rat APJ Receptor (GTPγS assay) (rat APJ receptor): 6.68 nM

B6: Apelin polypeptide SEQ ID NO: 297 (peptide)
peptide: Tridecanoyl-[γGlu][AEEA][AEEA][Orn]F[hArg][hArg]Q[NMeR]P[NMeR][Cha]SHKG[Oic][Nle]P[Phe(4-Cl)]-OH
SMILES: CCCCCCCCCCCCC(=O)N[C@@H](CCC(=O)NCCOCCOCC(=O)NCCOCCOCC(=O)N[C@@H](CCCN)C(=O)N[C@@H](Cc1ccccc1)C(=O)N[C@@H](CCCCNC(=N)N)C(=O)N[C@@H](CCCCNC(=N)N)C(=O)N[C@@H](CCC(N)=O)C(=O)N(C)[C@@H](CCCNC(=N)N)C(=O)N1CCC[C@H]1C(=O)N(C)[C@@H](CCCNC(=N)N)C(=O)N[C@@H](CC1CCCCC1)C(=O)N[C@@H](CO)C(=O)N[C@@H](Cc1c[nH]cn1)C(=O)N[C@@H](CCCCN)C(=O)NCC(=O)N1[C@H](C(=O)N[C@@H](CCCC)C(=O)N2CCC[C@H]2C(=O)N[C@@H](Cc2ccc(Cl)cc2)C(=O)O)C[C@@H]2CCCC[C@@H]21)C(=O)O
- EC50 Human APJ Receptor (GTPγS assay) (human APJ receptor): 0.698 nM
- EC50 Rat APJ Receptor (GTPγS assay) (rat APJ receptor): 1.02 nM

B7: Apelin polypeptide SEQ ID NO: 557 (peptide)
peptide: Tridecanoyl-[γGlu][AEEA][AEEA][Tle][hArg]P[dR][Cha]SHKG[Oic][Nle]P[Phe(4-Cl)]-OH
SMILES: CCCCCCCCCCCCC(=O)N[C@@H](CCC(=O)NCCOCCOCC(=O)NCCOCCOCC(=O)N[C@H](C(=O)N[C@@H](CCCCNC(=N)N)C(=O)N1CCC[C@H]1C(=O)N[C@H](CCCNC(=N)N)C(=O)N[C@@H](CC1CCCCC1)C(=O)N[C@@H](CO)C(=O)N[C@@H](Cc1c[nH]cn1)C(=O)N[C@@H](CCCCN)C(=O)NCC(=O)N1[C@H](C(=O)N[C@@H](CCCC)C(=O)N2CCC[C@H]2C(=O)N[C@@H](Cc2ccc(Cl)cc2)C(=O)O)C[C@@H]2CCCC[C@@H]21)C(C)(C)C)C(=O)O
- EC50 Human APJ Receptor (GTPγS assay) (human APJ receptor): 6.12 nM
- EC50 Rat APJ Receptor (GTPγS assay) (rat APJ receptor): 10.4 nM

B8: Apelin polypeptide SEQ ID NO: 550 (peptide)
peptide: Tridecanoyl-[γGlu][AEEA][AEEA]Q[β3hP][NMeR][Cha]SHKG[Oic][Nle][Aib][Phe(4-Cl)]-OH
SMILES: CCCCCCCCCCCCC(=O)N[C@@H](CCC(=O)NCCOCCOCC(=O)NCCOCCOCC(=O)N[C@@H](CCC(N)=O)C(=O)N1CCC[C@H]1CC(=O)N(C)[C@@H](CCCNC(=N)N)C(=O)N[C@@H](CC1CCCCC1)C(=O)N[C@@H](CO)C(=O)N[C@@H](Cc1c[nH]cn1)C(=O)N[C@@H](CCCCN)C(=O)NCC(=O)N1[C@H](C(=O)N[C@@H](CCCC)C(=O)NC(C)(C)C(=O)N[C@@H](Cc2ccc(Cl)cc2)C(=O)O)C[C@@H]2CCCC[C@@H]21)C(=O)O
- EC50 Human APJ Receptor (GTPγS assay) (human APJ receptor): 94.8 nM
- EC50 Rat APJ Receptor (GTPγS assay) (rat APJ receptor): 135 nM

B9: Apelin polypeptide SEQ ID NO: 314 (peptide)
peptide: Tridecanoyl-[γGlu][AEEA][AEEA][Nle][dR]Q[hArg]P[dR][NMeL]SHKG[Oic][Phe(4-I)]P[dBip]-OH
SMILES: CCCCCCCCCCCCC(=O)N[C@@H](CCC(=O)NCCOCCOCC(=O)NCCOCCOCC(=O)N[C@@H](CCCC)C(=O)N[C@H](CCCNC(=N)N)C(=O)N[C@@H](CCC(N)=O)C(=O)N[C@@H](CCCCNC(=N)N)C(=O)N1CCC[C@H]1C(=O)N[C@H](CCCNC(=N)N)C(=O)N(C)[C@@H](CC(C)C)C(=O)N[C@@H](CO)C(=O)N[C@@H](Cc1c[nH]cn1)C(=O)N[C@@H](CCCCN)C(=O)NCC(=O)N1[C@H](C(=O)N[C@@H](Cc2ccc(I)cc2)C(=O)N2CCC[C@H]2C(=O)N[C@H](Cc2ccc(-c3ccccc3)cc2)C(=O)O)C[C@@H]2CCCC[C@@H]21)C(=O)O
- EC50 Human APJ Receptor (GTPγS assay) (human APJ receptor): 2.77 nM
- EC50 Rat APJ Receptor (GTPγS assay) (rat APJ receptor): 6.81 nM

B10: Apelin polypeptide SEQ ID NO: 301 (peptide)
peptide: Tridecanoyl-[γGlu][AEEA][AEEA][dQ][hArg][β3hP][NMeR][Cha]SHKG[Oic][Nle]P[dPhe(4-Cl)]-OH
SMILES: CCCCCCCCCCCCC(=O)N[C@@H](CCC(=O)NCCOCCOCC(=O)NCCOCCOCC(=O)N[C@H](CCC(N)=O)C(=O)N[C@@H](CCCCNC(=N)N)C(=O)N1CCC[C@H]1CC(=O)N(C)[C@@H](CCCNC(=N)N)C(=O)N[C@@H](CC1CCCCC1)C(=O)N[C@@H](CO)C(=O)N[C@@H](Cc1c[nH]cn1)C(=O)N[C@@H](CCCCN)C(=O)NCC(=O)N1[C@H](C(=O)N[C@@H](CCCC)C(=O)N2CCC[C@H]2C(=O)N[C@H](Cc2ccc(Cl)cc2)C(=O)O)C[C@@H]2CCCC[C@@H]21)C(=O)O
- EC50 Human APJ Receptor (GTPγS assay) (human APJ receptor): 36 nM
- EC50 Rat APJ Receptor (GTPγS assay) (rat APJ receptor): 29 nM

Binder: Tridecanoyl-[γGlu][AEEA][AEEA][Orn]F[hArg][hArg][BLeu][hArg]P[hArg][Cha]SHKG[Oic][Nle]P[Phe(4-Cl)]-OH [Apelin polypeptide SEQ ID NO: 307]
- EC50 Human APJ Receptor (GTPγS assay) (human APJ receptor): 0.305 nM
- EC50 Rat APJ Receptor (GTPγS assay) (rat APJ receptor): 0.31 nM
